A word on the Kd: it is the constant that tells how readily two partners part at equilibrium. Low readings indicate higher affinity, high ones lower affinity.

Consider 8 molecules from patent publication US20250145729A1 (DENALI THERAPEUTICS, published 2025).

Test [1] deals with T1, circularly permuted cyno TfR apical domain (cynomolgus monkey).
T1 construct: same design as the human construct; also called cyTfR Apical Domain; cynomolgus TfR apical domain
T1 chain: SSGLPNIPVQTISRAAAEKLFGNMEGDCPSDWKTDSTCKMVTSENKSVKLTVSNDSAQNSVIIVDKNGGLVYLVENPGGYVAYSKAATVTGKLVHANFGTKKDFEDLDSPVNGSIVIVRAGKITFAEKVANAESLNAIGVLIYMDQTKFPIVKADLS
Briefly: SPR, supernatant, anti-Fab capture. As for the experimental part: (§1) Clones were expressed in HEK293 cells. Supernatants were captured for SPR by GE Healthcare anti-human Fab capture kit and the affinity to human and cyno TfR apical domain was measured (Table 30). The clones in Table 30 were bivalent and each TfR-binding Fc polypeptide also contained P329G and LALA mutations.
(In SPR one partner is held on a chip, and binding of the other changes the refractive index at the surface.)

Test [2] addresses T2, circularly permuted human TfR apical domain (human).
T2 construct: TfR residues 326-379 stand N-terminal to 194-296, loop 297-325 deleted; also called huTfR Apical Domain
T2 chain: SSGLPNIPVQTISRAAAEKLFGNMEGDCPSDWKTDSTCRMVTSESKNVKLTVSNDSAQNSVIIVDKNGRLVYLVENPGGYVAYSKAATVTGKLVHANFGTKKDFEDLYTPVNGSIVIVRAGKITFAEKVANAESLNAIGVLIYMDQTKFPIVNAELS
Kind of test: SPR, supernatant, anti-Fab capture. As for the experimental part: as §1

B1: 42.8.140 (Fc fusion)
chain: APEAAGGPSVFLFPPKPKDTLMISRTPEVTCVVVDVSHEDPEVKFNWYVDGVEVHNAKTKPREEQYNSTYRVVSVLTVLHQDWLNGKEYKCKVSNKALGAPIEKTISKAKGQPREPQVYTLPPSRDELTKNQVSLTCLVKGFYPSDIAVEWFYGDSKETNYKTTPPVLDSDGSFFLYSKLTVDKSRWQQGNLFACEVMHEALHNHYTYKLLSLSPGK
notes: bivalent; P329G+LALA
Turning to B1, the Kd came out at 5.23 µM in test [1] and 0.664 µM in test [2].

B2: 42.8.160 (Fc fusion)
chain: APEAAGGPSVFLFPPKPKDTLMISRTPEVTCVVVDVSHEDPEVKFNWYVDGVEVHNAKTKPREEQYNSTYRVVSVLTVLHQDWLNGKEYKCKVSNKALGAPIEKTISKAKGQPREPQVYTLPPSRDELTKNQVSLTCLVKGFYPSDIAVEWFYDAQKLNNYKTTPPVLDSDGSFFLYSKLTVDKSRWQQGNLFACEVMHEALHNHYTYKLLSLSPGK
notes: bivalent; P329G+LALA
For the molecule B2, the values for the Kd in test [1] and in test [2] were 11.6 µM and 1.05 µM, respectively.

B3: 42.8.164 (Fc fusion)
chain: APEAAGGPSVFLFPPKPKDTLMISRTPEVTCVVVDVSHEDPEVKFNWYVDGVEVHNAKTKPREEQYNSTYRVVSVLTVLHQDWLNGKEYKCKVSNKALGAPIEKTISKAKGQPREPQVYTLPPSRDELTKNQVSLTCLVKGFYPSDIAVEWFYDASKETNYKTTPPVLDSDGSFFLYSKLTVDKSRWQQGNLFACEVMHEALHNHYTYKLLSLSPGK
notes: bivalent; P329G+LALA
In the case of B3, the Kd was found to be 7.45 µM in test [1] and 0.832 µM in test [2].

B4: 42.8.161 (Fc fusion)
chain: APEAAGGPSVFLFPPKPKDTLMISRTPEVTCVVVDVSHEDPEVKFNWYVDGVEVHNAKTKPREEQYNSTYRVVSVLTVLHQDWLNGKEYKCKVSNKALGAPIEKTISKAKGQPREPQVYTLPPSRDELTKNQVSLTCLVKGFYPSDIAVEWFYDAQKLTNYKTTPPVLDSDGSFFLYSKLTVDKSRWQQGNLFACEVMHEALHNHYTYKLLSLSPGK
notes: bivalent; P329G+LALA
As for B4, the figures for the Kd in test [1] and in test [2] were 10.5 µM and 1.14 µM, respectively.

B5: 42.8.147 (Fc fusion)
chain: APEAAGGPSVFLFPPKPKDTLMISRTPEVTCVVVDVSHEDPEVKFNWYVDGVEVHNAKTKPREEQYNSTYRVVSVLTVLHQDWLNGKEYKCKVSNKALGAPIEKTISKAKGQPREPQVYTLPPSRDELTKNQVSLTCLVKGFYPSDIAVEWFYDGQKESNYKTTPPVLDSDGSFFLYSKLTVDKSRWQQGNLFACEVMHEALHNHYTYKLLSLSPGK
notes: bivalent; P329G+LALA
For B5, the Kd is 8.03 µM in test [1] and 3.51 µM in test [2].

B6: 42.8.142 (Fc fusion)
chain: APEAAGGPSVFLFPPKPKDTLMISRTPEVTCVVVDVSHEDPEVKFNWYVDGVEVHNAKTKPREEQYNSTYRVVSVLTVLHQDWLNGKEYKCKVSNKALGAPIEKTISKAKGQPREPQVYTLPPSRDELTKNQVSLTCLVKGFYPSDIAVEWFYGDSKLNNYKTTPPVLDSDGSFFLYSKLTVDKSRWQQGNLFACEVMHEALHNHYTYKLLSLSPGK
notes: bivalent; P329G+LALA
With B6, the Kd in test [1] is 4.63 µM; in test [2], 0.665 µM.

B7: 42.8.165 (Fc fusion)
chain: APEAAGGPSVFLFPPKPKDTLMISRTPEVTCVVVDVSHEDPEVKFNWYVDGVEVHNAKTKPREEQYNSTYRVVSVLTVLHQDWLNGKEYKCKVSNKALGAPIEKTISKAKGQPREPQVYTLPPSRDELTKNQVSLTCLVKGFYPSDIAVEWFYDASKESNYKTTPPVLDSDGSFFLYSKLTVDKSRWQQGNLFACEVMHEALHNHYTYKLLSLSPGK
notes: bivalent; P329G+LALA
In the case of B7, the values for the Kd in test [1] and in test [2] were 4.46 µM and 1.03 µM, respectively.

B8: 42.8.145 (Fc fusion)
chain: APEAAGGPSVFLFPPKPKDTLMISRTPEVTCVVVDVSHEDPEVKFNWYVDGVEVHNAKTKPREEQYNSTYRVVSVLTVLHQDWLNGKEYKCKVSNKALGAPIEKTISKAKGQPREPQVYTLPPSRDELTKNQVSLTCLVKGFYPSDIAVEWFYDGQKENNYKTTPPVLDSDGSFFLYSKLTVDKSRWQQGNLFACEVMHEALHNHYTYKLLSLSPGK
notes: bivalent; P329G+LALA
Take B8: the Kd came out at 11.4 µM in test [1] and 1.01 µM in test [2].
